{"source": "the DeepSol protein solubility set", "data": [{"assay": "soluble on expression in E. coli; label from the status in PepcDB or PDB records", "values": [{"sequence": "MGSDKIHHHHHHMAKIDFRNKINWRRRFRSPPRVETERDILRIFESDRGRIVNSPAIRRLQQKTQVFPLERNAAVRTRLTHSLEVQQVGRYIAKEVLSRLKELRLLEEYGLEELTGPFESVVEMACLMHDIGNPPFGHFGEAAINDWFRQRLAPGDALGQPLTDDRCEVQALRLHDGETSLNALRRKVRQDLCSFEGNAQGIRLVHTLMRMNLTWAQVGCILKYTRPAWWSEETPASHSYLMKKPGYYLAEEEYVARLRKELDLAPYNRFPLTWIMEAADDISYCVADLEDAVEKRIFSAEQLYQHLYDAWGSHEKGSLFSQVVENAWEKSRANYLKQSAEDQFFMYLRVNTLNKLVPYAARRFIDNLPAIFTGDFNHALLEDDSDCSQLLELYKNVAMKQVFSHPDVEQLELQGYRVISGLLDIYQPLLKLSLEDFSELVAQERVRRLPIASRLYQKLSTRHRLAYVEAVNKLARTAPEFALMEYYYRCRLIQDYISGMTDLYAWDEYRRLMAVE", "soluble on expression in E. coli": "not soluble"}, {"sequence": "MAHNYLLEIGLEEIPAHVVTPSIKQLVQKVTAFLKENRLTYDSIDHFSTPRRLAIRINGLGDQQPDIEEDAKGPARKIAQDADGNWTKAAIGFTRGQGLTVDDITFKTIKGTDYVYVHKLIKGKMTKEILTGLKEVVESINFPTMMKWANFDFKYVRPIRWLVSILDEEVLPFSILDVTAGRRTEGHRFLGEAVELANAEEYEAKLHDQFVIVDADERKQLISNQIKAIAESNRWNVTPNPGLLEEVNNLVEWPTAFNGGFDEKYLAIPEEVLITSMRDHQRFFFVRDQAGKLLPNFISVRNGNEEFIENVVRGNEKVLTARLEDAAFFYEEDQKHDINYYVDRLKKVSFHDKIGSMYEKLQRVNSIAKVIGNTLNLNQTELDDIDRATMIYKFDLVTGMVGEFSELQGVMGEKYAQLNGENQAVAQAIREHYMPNSAEGDLPESVTGAVVALADKFDNIFSFFSAGMIPSGSNDPYALRRHAYGIVRILNSRDWQLDLNQFKSQVKTELAENGTAFGVDVDQNFDQVLNFFNDRIKQLLDHQKISHDIVETVLTGNNHD", "soluble on expression in E. coli": "not soluble"}, {"sequence": "MAHHHHHHMAPLKTQAPSNRSLLGYPLRRAAAMEMLYGGICIQHLAQPPFPLRTIQSESLPPPSLQGERDDLELEVKDSTGNVMGYRLFPVNIGIRARTESVRVRSEDCYKRFLAQKHCAAAGVPLQFPAPSSITNSNCLATPRAASHFHPPSSSLSLFTRPADSQGGDVGRTTPADVAAYHPRAWRPYQMLKPMPHNWGPAVRSSGVRGPHMQLLQERIDKKGFGWKRKSRSLWQQDISTAGFRPKRYF", "soluble on expression in E. coli": "not soluble"}, {"sequence": "SPVSPAGSHKQQNFGLNNATQPKKSISFFATMKATSVKGYTGANQSRMAVSKTVLIPPELKTVEKPNPNIKTTQVFDINGTDVTPRPLYHPDPLTGTAKPSKLLTSQEGSLGSEFISSYSLYQNTINPSTLGQFTRSVLGSSTVSKSSVSASESIAEDLEEPSYKRERLTSFTDLQVIRAAPEKIVTKEDLEKNIEIILTETETLRFFDLPTVMVSVESEEAEKVTQRNKNYEVLCRNRLGNDLYVERMMQTFNGAPKNKDVQCDKIIMEDKGIMSTAWDLYDSYNAMELVSLSVKQSVVESSSKANVLPKDQDQRLPGSTTEKNSETSSLMDIENVILAKIHEDEEDHSDAILKSDKFHQDLFFMERVLMENIFQPKLAAYRQLPVLKEPEPEEPEDVLESAKHEEVEEESKKEEEEEIHAEESTIPANLERLWSFSCDLTKGLNVSSLAWNKTNPDLLAVGYGHFGFKEQKRGLACCWSIKNPMVTQTRIRSIFIWLLTKFS", "soluble on expression in E. coli": "soluble"}, {"sequence": "MRTLPILLLVIVGVVYCYPLNEDNVDLESDVAEMEGAELDRVKRASDHKLEKKLDEIMEKVEKIKDKIEENKEKREKKNKKKGNKKDEDEEEEEDKDKKKKDKKKNKDSEEEEDKKKDKKKKNDSSDESEEENKKRKNKRKN", "soluble on expression in E. coli": "not soluble"}, {"sequence": "MRTDLALDFSVNKENKTITIKREFAAVRAIVWEAFTRAEILDQWWAPKPWKAKTKSMDFKEGGTWLYAMVGPNGEEHWSICEYAIIKPIERFTGKDGFTDASGKLNTEMPRSNWDMRFIDKGEITEVQYHISYDDVAQLEATIQMGFKEGITMAMENLDELLVSGKKLEHHHHHH", "soluble on expression in E. coli": "soluble"}, {"sequence": "MSLAIIPGVEQKPMSSNLESRIDQGTGREPADMVLKGGRFFDLVTGELVASDIAICGDTVVGTCGDYKGRHEIDISGKIVVPGFIDTHLHIESSLVTPHEFDRCVLPYGVTTAICDPHEIANVLGAEGLQFFLDSAMETIMDIRVQLSSCVPATHLETSGADLPIEKLLPFRNHPKVIGLAEFMNFPGVIHKDPVCMAKLEAFQGQHIDGHAPLLSGAALNGYLAAGIRTEHECTSAAEALEKIRKGMHILVREGSVSKDLHALMPIITERLSPYLALCTDDRNPLDIAEQGHLDYMIRTAIASGVEPLAIYRAASISAAKAFGLRDRGLVAPGWRADLVVIDTLQNCKASMVLSGGRLVDDALFATRKPVAPVGLDSVKARPVLASHFGVPVTEGETPVMGVLPGKIITEHRRYKLPTDGNQTTVDLENDIIKVAVIERHGKNGNHANGFVQGFGLKKGAIASTVGHDSHNICVVGVSEDDMALAANRLGDIKGGFVVVEDGRVTGEIALPVAGLMSLEPYETVRDTLHTLRKAAYALGTTLEEPFLQVAFLPLPVIPHLKISDMGMVDVDRFALIEGHHHHHH", "soluble on expression in E. coli": "soluble"}, {"sequence": "MDEKLVKEVIFSFREVQRKTHHVLAEEAANREITTTQLLAIRELQKESDLTLGELAERMKLGKSTVSGIVDRLVKAGFLKRTRNESNRRALSLELTEKGATKAAETYHVFFNRLEPILEIGEERLKEMLEMHQEIITILEREGARD", "soluble on expression in E. coli": "not soluble"}, {"sequence": "TGFNYFQYNITNSLNASYGPSQEGNQTDFYAGAVQLQQTVVQLDVDRGLEVGLASPLNVAAGALFRADNYQLKAGEEASWAGFENPPWGINQNGGTPAPGAQVFPGFRPEQEVDETRTNIGTYVDLQADLIDPLQVNIAGRFENYSDFGSTVNGKVALRFEPVSQLAFRGTAQTGYRAPNQAQKFFSKVSTTFIDNQPVQTGIFRINSDVGNALGIPDLE", "soluble on expression in E. coli": "not soluble"}, {"sequence": "MNSRMSKLRRSISRSVFQLNSSLSRQNSLNGLVDLPTMSNTTLVDKFATPSNFRQLRDLIRNNNELLAEVVTAFEEKAALDFHYSKTLKKISIRLHKLTQSVESGIDKGWTNVAEQFDIHATIHSNLGSAITEDIIQPLRSIQSNQQKTIRAADNFVEREIRKLKDKKDETQKMKRSLYVLAKELEKTENSAEREKAQPEKFALRRKKYKDQMIRSEDDYVWQTVDLEKQRRMTENVLRKGVESMESVERQRLAHCQTALGRYKRKIETLGPNLRQMFERHSNNLELAVDSVPEDYIQTIQPSTSAVNHITLIDLHAENFGEVMSSTRRRQNLERVSGVLDSELKRLYNNQTADVMVSNSKQISVLEFIEYLYYKLNDSINIVDGGQNRGFHRLSRFQHKIKDKSGLPMTILTIPLSGDNNSLPPPCLSMEASTAYPSPRGSGEYEEYEKISDDGFYSTTTTSSNGGPIRTTTTFDEPTSSPPTICRVLYDFEPKHADEIEIREGQCVLVEDRIGDDWLIGHVISQHDNSSIDPRSGRFPTTYVSLRQ", "soluble on expression in E. coli": "not soluble"}, {"sequence": "MGSDKIHHHHHHMIAVLDMGTNSFILLVVSEKGETILEEVHEVGIASGNLEKAKEVFKECVEKAEKMGAELHIFGTAFFRKHPDIFQQITGGRGEILPEEKEAYYSYISVAKDFGKKDILVADLGGGSLELAWKDGYVSLELGTHVLNRTFSLTLPYIEPVDGIVEYVMKRLPEVKKDELFGVGGSFVALAALMKGKWDLEILHGSVLKLEEVEKLVDKIKRMSFEDVKNLKVLPEGREKTILAGGIVTIALLRKYSPRMTVSTRGYRYGIVWEILEKRWRARGDSNPQPPDPQSGALSN", "soluble on expression in E. coli": "not soluble"}, {"sequence": "MNIAELYGKMGKHSWRIMDAIFKNLWDYEYVPLQLISSHARIGEEKARNILKYLSDLRVVQNRQKDYEGSTFTFIGLSLYSLHRLVRSGKVDAIGKLMGEGKESAVFNCYSEKFGECVVKFHKVGHTSFKKVKEKRDYGDLHFSVLAIRSARNEFRALQKLQGLAVPKVYAWEGNAVLMELIDAKELYRVRVENPDEVLDMILEEVAKFYHRGIVHGDLSQYNVLVSEEGIWIIDFPQSVEVGEEGWREILERDVRNIITYFSRTYRTEKDINSAIDRILQE", "soluble on expression in E. coli": "soluble"}, {"sequence": "MAHHHHHHMSHEGAPQGEYVAILDAGSQYGKVIDRKVRELHVETSILSLNTPAEKLRNDANLKGIIISGGPSSVNDATSLAYDRAIFSMGKPVLGICYGMQMLTELYGGEVCRGKVREDGQDNIQVDTSSPIFAGLESTEAVLLTHGDSITAVGSELKVIARSSAGIISAVQHRSRPLFGVQFHPEVELTVSGKTIFKNFLQLCRCNFSFTMEDREAVALRLIRERTSGGQKVLCLASGGVDSTVCAVLLLKALGPERVVCIHIDHGFMRLNESVQAVEALNAAGVRVHLVKAQEDFAQASTEMTAKGSRAAYTTNKLREVTDPEEKRNIIGNTFMTVCDRVIKELQLDVENLLLAQGTLRPDLIESGSKYASVNAAAIKTHHNDTAVVRLLRDAGRIIEPLCDYHKDEVRELGARLGIPCRLLERQPFPGPGLAIRTLCTDGTPFRDGNFEDTQTTVKRVCMGADASSAEVAALAQKATLSACILPVRTVGVQGDGRTYAYAAALSMQTFPTAEQWATLIQLAKEIPKTAHAVNRVVFMFGPPQSESPSTVTPTYLTTDVLEKLRVADDKVNSILMKHQLVRSLSQVPIILIPIGFDKAGGYSVVVRTFLTNDFMTGIPATPGTAFMPLAVLEEIFNEVQKLEFVGRVMYDLTAKPPGTTEWE", "soluble on expression in E. coli": "not soluble"}, {"sequence": "MKQIESAKNQKVKDWKKLHTKKERTKTNTFLIEGEHLVEEALKSPGIVKEILVKDETRIPSDLETGIQCYMLSEDAFSAVTETETPQQIAAVCHMPEEKLATARKVLLIDAVQDPGNLGTMIRTADAAGLDAVVLGDGTADAFNGKTLRSAQGSHFHIPVVRRNLPSYVDELKAEGVKVYGTALQNGAPYQEIPQSESFALIVGNEGAGVDAALLEKTDLNLYVPLYGQAESLNVAVAAAILVYHLRG", "soluble on expression in E. coli": "soluble"}, {"sequence": "MGIDPGTGSMDVLGFDDESNNVFLEESIPRDEVTRDPSLPLRIVEEASAKVGGLDAVVAPSGYGMPLKRASETAPGDICEATFIHSSDEVLGLRIVGLRRLMALFASSDLPAWFTPGVIHLPTVPAWRKVGRIDMGTADKLYTVAAALRTEVEYHGVEPEAARFIAVEAGMAYTAAVAVVGGKVVDGVGGTSGFHGFMGGGAMDGEAAYALAAVAPRFSKSLLFKGGAGWVAGVSSPVELEEKASEGGGLEALEMLGEGVVKSVATLLPSLRPEGGEVRVYVSGRLFSLGRLGSELRSRLRDFISSIGLTPRVLTIERLGSKTKEGASGAALVASGLAGGRYKWLVDHLELERSSGSIFDHLPVDEDLRRAVRLEFRSCSPLGEA", "soluble on expression in E. coli": "not soluble"}, {"sequence": "MGSDKIHHHHHHMENDFPLKGKTVLVTRNKAQAASFQQKVEALGGKAVLTSLITFRRALPNDVAEQVREDLAAPGWLVFTSVNGADFFFSYLKENQLILPAHKKIAAVGEKTARRLKMHNVSVDVMPQEYIAEQLADALKQHAEPGETITVMKGNLSRDVIKQELVPLGFEVKEWVLYETIPDEEGIEALKDAAGQYSFDYVTFTSSSTVHTFMHVLGEELKKWKANGTACISIGPLTNDALLTYGITSHTPDTFTIDGMLELMCSMSREEERI", "soluble on expression in E. coli": "not soluble"}]}]}
